According to article PMC10926635, “Membrane-associated RING-CH 7 inhibits stem-like capacities of bladder cancer cells by interacting with nucleotide-binding oligomerization domain containing 1” (Cell & Bioscience, 2024):

Target: T1, HA-NOD1, purified protein (UniProt Q9Y239-1 1-953)
T1 construct: also called purified NOD1 protein; source: purified by Hangzhou Jingjie Biotechnology Co., Ltd
T1 sequence (looked up): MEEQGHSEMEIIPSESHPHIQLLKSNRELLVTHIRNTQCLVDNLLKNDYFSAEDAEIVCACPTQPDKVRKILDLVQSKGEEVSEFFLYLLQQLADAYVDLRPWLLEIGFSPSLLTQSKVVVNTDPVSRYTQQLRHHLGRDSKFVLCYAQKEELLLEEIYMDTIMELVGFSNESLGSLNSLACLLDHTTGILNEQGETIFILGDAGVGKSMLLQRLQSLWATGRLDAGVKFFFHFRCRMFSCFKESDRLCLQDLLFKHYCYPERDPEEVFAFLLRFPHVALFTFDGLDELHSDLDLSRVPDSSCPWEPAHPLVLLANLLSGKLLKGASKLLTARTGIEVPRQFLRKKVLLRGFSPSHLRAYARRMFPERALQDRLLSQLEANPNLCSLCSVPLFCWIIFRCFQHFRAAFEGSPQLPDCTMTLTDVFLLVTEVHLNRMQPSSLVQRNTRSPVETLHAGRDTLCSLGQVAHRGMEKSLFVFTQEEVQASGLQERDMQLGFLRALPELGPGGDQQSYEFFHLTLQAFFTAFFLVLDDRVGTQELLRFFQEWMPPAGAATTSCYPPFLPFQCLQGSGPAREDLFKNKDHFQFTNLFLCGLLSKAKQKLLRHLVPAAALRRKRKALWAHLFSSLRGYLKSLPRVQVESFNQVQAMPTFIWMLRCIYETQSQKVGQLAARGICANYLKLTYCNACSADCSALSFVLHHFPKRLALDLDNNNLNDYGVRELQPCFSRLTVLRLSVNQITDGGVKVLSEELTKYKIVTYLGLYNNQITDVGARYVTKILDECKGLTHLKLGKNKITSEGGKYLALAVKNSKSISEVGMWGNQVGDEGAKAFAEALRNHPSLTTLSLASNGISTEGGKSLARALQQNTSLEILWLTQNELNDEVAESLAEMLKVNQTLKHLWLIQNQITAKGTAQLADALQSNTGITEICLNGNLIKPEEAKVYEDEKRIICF
Assay: co-IP; purified Flag-MARCH7 and HA-NOD1 proteins mixed; co-IP as for the cell lysates
Details: both partners purified

B1: Flag-MARCH7-WT, purified protein (enzyme, UniProt Q9H992-1 1-704, looked up)
chain: MESKPSRIPRRISVQPSSSLSARMMSGSRGSSLNDTYHSRDSSFRLDSEYQSTSASASASPFQSAWYSESEITQGARSRSQNQQRDHDSKRPKLSCTNCTTSAGRNVGNGLNTLSDSSWRHSQVPRSSSMVLGSFGTDLMRERRDLERRTDSSISNLMDYSHRSGDFTTSSYVQDRVPSYSQGARPKENSMSTLQLNTSSTNHQLPSEHQTILSSRDSRNSLRSNFSSRESESSRSNTQPGFSYSSSRDEAPIISNSERVVSSQRPFQESSDNEGRRTTRRLLSRIASSMSSTFFSRRSSQDSLNTRSLNSENSYVSPRILTASQSRSNVPSASEVPDNRASEASQGFRFLRRRWGLSSLSHNHSSESDSENFNQESEGRNTGPWLSSSLRNRCTPLFSRRRREGRDESSRIPTSDTSSRSHIFRRESNEVVHLEAQNDPLGAAANRPQASAASSSATTGGSTSDSAQGGRNTGISGILPGSLFRFAVPPALGSNLTDNVMITVDIIPSGWNSADGKSDKTKSAPSRDPERLQKIKESLLLEDSEEEEGDLCRICQMAAASSSNLLIEPCKCTGSLQYVHQDCMKKWLQAKINSGSSLEAVTTCELCKEKLELNLEDFDIHELHRAHANEQAEYEFISSGLYLVVLLHLCEQSFSDMMGNTNEPSTRVRFINLARTLQAHMEDLETSEDDSEEDGDHNRTFDIA
notes: Membrane-associated RING-CH 7 (MARCH7); also called purified MARCH7 protein; source: purified by Hangzhou Jingjie Biotechnology Co., Ltd
Q: Does B1 bind?
A: Result: binds
